The source of these data is the RNAGym collection of RNA variant scans (doi:10.7554/elife.80360).

Sequences and labels used below:
B1: HDV Ribozyme (parent)
chain: GGCCGGCAUGGUCCCAGCCUCCUCGCUGGCGCCGGCUGGGCAACAUUCCGAGGGGACCGUCCCCUCGGUAAUGGCGAAUGGGACCCA

The series covers variants of B1. The experiment in a line: self-cleavage, relative activity (ratio to wild type); higher = more cleavage; co-transcriptional.
As for U47C A70C, the self-cleavage worked out at 0.739.

Take C3A G54C: the self-cleavage amounted to 0.34.

As for G11A C22U, the self-cleavage is 0.041.

Turning to G11C A83C, the self-cleavage came out at 0.158.

Take G35C A71U: the self-cleavage stood at 0.128.

In the case of C44G U65C, the self-cleavage came to 0.597.

For the variant U46A U69A, the self-cleavage is 1.08.

C75U G81U: the self-cleavage is 0.193.

In the case of G34U G54A, the self-cleavage stood at 0.041.

With G29A G52C, the self-cleavage turned out to be 0.197.

Take U9G C41G: the self-cleavage amounted to 0.831.

For the variant A42C C75U, the self-cleavage was found to be 0.148.

On to C24U C41U, for which the self-cleavage was 0.616.

For the variant G10U C19G, the self-cleavage was 0.1.

As to C14A C32G, the self-cleavage was 0.0573.

Turning to G10U G80U, the self-cleavage was found to be 0.0944.

For C24U C36U, the self-cleavage amounted to 0.402.

As to C36G C41U, the self-cleavage is 0.199.

For the variant C3G C30A, the self-cleavage was 0.0639.

With G34U C85U, the self-cleavage stood at 0.164.

G38U A56C: the self-cleavage worked out at 0.266.

Consider C3U G11A, for which the self-cleavage turned out to be 0.262.

For the variant C26G C86A, the self-cleavage worked out at 0.847.

Consider G1A C86A, for which the self-cleavage was 0.119.

With A16U A51U, the self-cleavage turned out to be 0.914.

For G35C A87U, the self-cleavage turned out to be 0.208.

As for A16U C41G, the self-cleavage was found to be 0.401.

On to G38C C66G, for which the self-cleavage worked out at 0.203.

Consider C22G C33U, for which the self-cleavage was determined as 0.0268.

G25C A78U: the self-cleavage amounted to 0.131.

For the variant C19G U46C, the self-cleavage was determined as 0.13.

Regarding U9G G68C, the self-cleavage worked out at 1.02.

As for C19A C75G, the self-cleavage came out at 0.0528.

In the case of G55A C84U, the self-cleavage stood at 0.741.

For C7U C62A, the self-cleavage is 0.764.

Turning to G68U A70G, the self-cleavage was found to be 0.95.

On to U12C C19A, for which the self-cleavage was found to be 0.0361.

Consider C64U A71U, for which the self-cleavage was found to be 1.12.

Consider G6U G53C, for which the self-cleavage came out at 0.494.

Consider A77U A87G, for which the self-cleavage was determined as 0.591.

On to U60C A70G, for which the self-cleavage is 1.15.

On to U37G G52A, for which the self-cleavage was found to be 0.106.

On to G11C C14G, for which the self-cleavage came to 0.

For U20A C22A, the self-cleavage amounted to 0.0898.

Turning to C44G G80U, the self-cleavage came out at 0.0966.

For C44U G53U, the self-cleavage came to 0.831.

On to C32G G39U, for which the self-cleavage was determined as 0.0563.

For the variant C49U A77C, the self-cleavage stood at 0.469.

In the case of G5U G54U, the self-cleavage was found to be 0.612.

Turning to G6C U65A, the self-cleavage was 0.104.

C61U C66G: the self-cleavage was determined as 0.529.

As to C41G A87G, the self-cleavage worked out at 0.772.

On to C3A U72C, for which the self-cleavage stood at 0.198.

With A45U A70C, the self-cleavage worked out at 0.95.

In the case of C41U C66G, the self-cleavage was found to be 0.926.

Regarding C4G G68U, the self-cleavage is 0.227.

For G1C C85U, the self-cleavage was found to be 0.266.

For the variant C44G U79A, the self-cleavage was 0.388.

In the case of G31A G73C, the self-cleavage was determined as 0.107.

As to G5A A77U, the self-cleavage came to 0.

Regarding G11U C63G, the self-cleavage came out at 0.248.

With G6U U20G, the self-cleavage was found to be 0.

Take G68C C75U: the self-cleavage is 0.272.

Consider G28A C41G, for which the self-cleavage turned out to be 0.151.

C18A C85U: the self-cleavage came out at 0.158.

Consider A8U G68A, for which the self-cleavage was 0.511.

Consider C22U G28U, for which the self-cleavage stood at 0.148.

With C14U G68C, the self-cleavage is 0.733.

For C26G C41U, the self-cleavage turned out to be 0.76.

In the case of U9C C66U, the self-cleavage is 0.919.

As for C44U U69C, the self-cleavage came to 0.814.

In the case of C36A U47A, the self-cleavage amounted to 0.196.

On to U46C C58U, for which the self-cleavage is 0.7.

For A16C G38C, the self-cleavage turned out to be 0.

Regarding C49A G81A, the self-cleavage turned out to be 0.242.

Consider A43U C85A, for which the self-cleavage came to 0.499.

With C7A C15G, the self-cleavage stood at 0.123.

With C21U G28C, the self-cleavage was 0.0449.

For the variant G81A A87G, the self-cleavage was 0.258.

On to G10A G34C, for which the self-cleavage worked out at 0.227.

Consider C32A C85U, for which the self-cleavage was determined as 0.231.

As to C75U G82A, the self-cleavage stood at 0.202.

For the variant A45G G76U, the self-cleavage is 1.12.

On to G52U A83G, for which the self-cleavage was found to be 0.81.

Turning to U46G U69C, the self-cleavage is 0.582.

Take G38C C86G: the self-cleavage worked out at 0.217.

Turning to C44U G81A, the self-cleavage was determined as 0.224.

Take G2U G73A: the self-cleavage is 0.0484.

As to G50A C86A, the self-cleavage came out at 0.931.

As to A71G U72C, the self-cleavage was 0.705.

Take C33G G34A: the self-cleavage came to 0.0831.

On to G68A G81U, for which the self-cleavage amounted to 0.124.

As to C48U C86U, the self-cleavage is 1.09.

As to G67A U72C, the self-cleavage was 0.539.

Take C24U G59C: the self-cleavage was 0.845.

Take G2C A78C: the self-cleavage stood at 0.

In the case of U23C A43C, the self-cleavage amounted to 0.465.

Regarding U23G G74U, the self-cleavage was 0.0863.

Turning to C13A C32A, the self-cleavage was 0.0326.

On to C26A C36G, for which the self-cleavage came out at 0.196.

In the case of U12G U69C, the self-cleavage is 1.35.

As for G53C C85A, the self-cleavage came to 0.955.

As for C21U G55A, the self-cleavage came out at 0.231.

A45C G76U: the self-cleavage was 1.01.

Regarding C63U, the self-cleavage came to 1.

G5A G17A: the self-cleavage was found to be 0.172.

In the case of G10C C62A, the self-cleavage is 0.919.

With G39C G73C, the self-cleavage was 0.151.

For U69G C86G, the self-cleavage came out at 0.692.

On to G38A A56U, for which the self-cleavage worked out at 0.218.

C33U G59U: the self-cleavage came to 0.855.

As to C49G C64U, the self-cleavage was determined as 0.973.

For the variant C21G C41G, the self-cleavage worked out at 0.095.

As to C24A, the self-cleavage came out at 0.767.

G6U C86A: the self-cleavage amounted to 0.574.

With G1U U20C, the self-cleavage was found to be 0.401.

In the case of C66A C85U, the self-cleavage came to 0.985.

Regarding C36U C62A, the self-cleavage came out at 0.53.

For the variant A42U A77G, the self-cleavage stood at 0.464.

Regarding G50A U65A, the self-cleavage was 1.02.

As for C21U C33U, the self-cleavage was found to be 0.147.

Take C15G G17U: the self-cleavage is 0.243.

With C33A U60G, the self-cleavage was determined as 0.116.

C19U C49G: the self-cleavage came out at 0.154.

For the variant G10U G29A, the self-cleavage was 0.0536.

Consider G38U C63A, for which the self-cleavage worked out at 0.159.

Turning to G53U U60A, the self-cleavage is 0.997.

Regarding C19U C86U, the self-cleavage came to 0.122.

As to C41G G54C, the self-cleavage was 0.849.

In the case of C7U G74A, the self-cleavage came to 0.204.

Take U12G G52A: the self-cleavage was determined as 1.05.

On to C14G C18U, for which the self-cleavage amounted to 0.115.

For U27C U69A, the self-cleavage came to 0.317.

Regarding G31A G52C, the self-cleavage worked out at 0.619.

U27C G74A: the self-cleavage is 0.193.

Take G2A C26G: the self-cleavage stood at 0.166.

Consider U47G G81C, for which the self-cleavage turned out to be 0.128.

As for C13A U46G, the self-cleavage worked out at 0.0594.

For G50C A87U, the self-cleavage is 1.15.

For the variant G6A G35C, the self-cleavage worked out at 0.119.

Regarding C14G U65G, the self-cleavage came to 0.665.

On to C48A G52C, for which the self-cleavage was 1.03.

Take A8C G40U: the self-cleavage turned out to be 0.345.

G40U U47A: the self-cleavage amounted to 0.427.

Consider G31U G35A, for which the self-cleavage was 0.17.

On to G52C C84U, for which the self-cleavage was found to be 0.537.

For the variant G2U G10A, the self-cleavage worked out at 0.

G28U G68U: the self-cleavage is 0.0386.

Turning to A43U C84U, the self-cleavage came out at 0.151.

With G2C A71U, the self-cleavage is 0.11.

As to G5C G11C, the self-cleavage came to 0.196.

Consider G35A G59U, for which the self-cleavage amounted to 0.646.

In the case of G17C A77U, the self-cleavage was 0.

U47C A71U: the self-cleavage amounted to 1.11.

For the variant G17A G52U, the self-cleavage was found to be 0.728.

C49A G80C: the self-cleavage came to 0.0665.

On to G34C A71G, for which the self-cleavage is 0.

Consider G31A C61G, for which the self-cleavage was determined as 0.401.

In the case of G50A A56G, the self-cleavage is 1.15.

With G6A C57G, the self-cleavage was 0.643.

G54C A78G: the self-cleavage was determined as 0.507.

As for G68U A83G, the self-cleavage was 0.407.

For A42C A56U, the self-cleavage was found to be 0.332.

Regarding U37G G39C, the self-cleavage was 0.185.

For C61A A77U, the self-cleavage is 0.389.

With U12A U79A, the self-cleavage was 0.0791.

For G2C G53U, the self-cleavage came out at 0.0665.
